Assay results: paper PMC7319273 (2020)

B1: 2M-10B11 (human monoclonal antibody) (antibody, V domains shown)
VH: EVQLVESGGGLVQPGGSLRLSCAASGFTVSSNYMSWVRQAPGKGLEWVSVIYSGGSTYYADSVKGRFTISRDNSKNTLYLQMNSLRAEDTAVYYCARATWLRGVMDVWGQGTTVTVSS
VL: QSALTQPHSVSESPGKTVTISCTGSSGSIASNYVQWYQQRPGSAPTTVIYEDNQRPSGVPDRFSGSIDSSSNSASLTISGLKTEDEADYYCQSYDSSNHWVFGGGTKLTVL
B2: 4A8 (human monoclonal antibody) (antibody, V domains shown)
VH: EVQLVESGAEVKKPGASVKVSCKVSGYTLTELSMHWVRQAPGKGLEWMGGFDPEDGETMYAQKFQGRVTMTEDTSTDTAYMELSSLRSEDTAVYYCATSTAVAGTPDLFDYYYGMDVWGQGTTVTVSS
VL: EIVMTQSPLSSPVTLGQPASISCRSSQSLVHSDGNTYLSWLQQRPGQPPRLLIYKISNRFSGVPDRFSGSGAGTDFTLKISRVEAEDVGVYYCTQATQFPYTFGQGTKVDIK

Target: SARS-CoV-2 Spike protein extracellular domain (S-ECD), as used in ELISA and BLI (SARS-CoV-2, UniProt P0DTC2 14-1208)
Assay: BLI

Binder | Kd [nM]
B1 | 0.342
B2 | 0.996
